Values quoted from earlier work, collected in patent publication US8623366B2, “Methods for treating visceral pain by administering antagonist antibodies directed against calcitonin gene-related peptide” (Labrys Biologics, Inc., priority 2009, dated 2014).
Numbering of substitutions follows the chain as printed. Numbers in names are those of the source.

Experiments:
α-rat CGRP = target: T1, α-rat CGRP (Rattus norvegicus, UniProt P01256); settings: Table 6 reproduced from WO2007/054809; cited from earlier work
T1 sequence (P01256 83-119 limits assumed): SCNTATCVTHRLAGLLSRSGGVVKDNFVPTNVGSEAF

human α-CGRP = target: T2, human α-CGRP (Homo sapiens, UniProt P06881); settings: Table 6 reproduced from WO2007/054809; cited from earlier work
T2 sequence (P06881 83-119 limits assumed): T1 sequence (P01256 83-119 limits assumed) with S1A, N3D, D25N, E35K

B1: M65: G1 variant: L1 R28N T30G; L2 G50A L56I; H2 E54K A57C; HC-FW3 L99T A100V (antibody, chains of the INN, looked up, variant L:R28N L:T30G L:G50A L:L56I H:E54K H:A57C H:L99T H:A100V, V domains shown)
VH: EVQLVESGGGLVQPGGSLRLSCAASGFTFSNYWISWVRQAPGKGLEWVAEIRSKSDCSATHYAEAVKGRFTISRDNAKNSLYLQMNSLRAEDTAVYYCTVYFDYGLAIQNYWGQGTLVTVSS
VL: EIVLTQSPATLSLSPGERATLSCKASKNVGTYVSWYQQKPGQAPRLLIYAASNRYIGIPARFSGSGSGTDFTLTISSLEPEDFAVYYCSQSYNYPYTFGQGTKLEIK
Q: With B1 as the molecule, how does the Kd (α-rat CGRP) read?
A: 0.226 µM

Q: What about the Kd (human α-CGRP) of the same molecule?
A: 0.00502 µM

B2: M77: G1 variant: L1 R28N T30S; L2 G50A L56T; H2 E54K A57D; HC-FW3 L99T A100V (antibody, chains of the INN, looked up, variant L:R28N L:T30S L:G50A L:L56T H:E54K H:A57D H:L99T H:A100V, V domains shown)
VH: B1 VH with C57D
VL: B1 VL with G30S, I56T
Q: For B2, which Kd (α-rat CGRP) is on record?
A: 0.794 µM

Q: And the Kd (human α-CGRP)?
A: 0.00298 µM

B3: M37: G1 variant: L1 R28N T30S; H2 A57G; HC-FW3 L99T A100V (antibody, chains of the INN, looked up, variant L:R28N L:T30S H:A57G H:L99T H:A100V, V domains shown)
VH: B1 VH with K54E, C57G
VL: B1 VL with G30S, A50G, I56L
Q: With B3 as the molecule, how does the Kd (α-rat CGRP) read?
A: 0.0806 µM

Q: And the Kd (human α-CGRP)?
A: 0.00141 µM

B4: M28: G1 variant: L1 R28N T30D; H2 E54R A57N; HC-FW3 L99T A100V (antibody, chains of the INN, looked up, variant L:R28N L:T30D H:E54R H:A57N H:L99T H:A100V, V domains shown)
VH: B1 VH with K54R, C57N
VL: B1 VL with G30D, A50G, I56L
Q: What does the source list for B4?
A: Kd (α-rat CGRP): 0.0694 µM; Kd (human α-CGRP): 0.00062 µM

B5: M71: G1 variant: L1 R28N T30G; L2 L56I; H2 E54K A57Y; HC-FW3 L99T A100V (antibody, chains of the INN, looked up, variant L:R28N L:T30G L:L56I H:E54K H:A57Y H:L99T H:A100V, V domains shown)
VH: B1 VH with C57Y
VL: B1 VL with A50G
Q: Which Kd (α-rat CGRP) does the source give for B5 here?
A: 0.118 µM

B6: M51: G1 variant: L1 R28N; L2 L56I; H2 E54K A57G; HC-FW3 L99T A100V (antibody, chains of the INN, looked up, variant L:R28N L:L56I H:E54K H:A57G H:L99T H:A100V, V domains shown)
VH: B1 VH with C57G
VL: B1 VL with G30T, A50G
Q: What does the source list for B6?
A: Kd (α-rat CGRP): 0.0656 µM; Kd (human α-CGRP): 0.00082 µM

B7: M26: G1 variant: L1 R28N; H2 A57G; HC-FW3 L99T A100V (antibody, chains of the INN, looked up, variant L:R28N H:A57G H:L99T H:A100V, V domains shown)
VH: B1 VH with K54E, C57G
VL: B1 VL with G30T, A50G, I56L
Q: What does the source list for B7?
A: Kd (α-rat CGRP): 0.0513 µM; Kd (human α-CGRP): 0.00093 µM

B8: M38: G1 variant: L1 R28N T30W; HC-FW3 L99T A100V (antibody, chains of the INN, looked up, variant L:R28N L:T30W H:L99T H:A100V, V domains shown)
VH: B1 VH with K54E, C57A
VL: B1 VL with G30W, A50G, I56L
Q: What does the source list for B8?
A: Kd (α-rat CGRP): 0.284 µM; Kd (human α-CGRP): 0.00136 µM

B9: M31: G1 variant: L1 R28N T30G; H2 E54K A57G; HC-FW3 L99T A100V (antibody, chains of the INN, looked up, variant L:R28N L:T30G H:E54K H:A57G H:L99T H:A100V, V domains shown)
VH: B1 VH with C57G
VL: B1 VL with A50G, I56L
Q: With B9 as the molecule, how does the Kd (α-rat CGRP) read?
A: 0.201 µM

Q: And the Kd (human α-CGRP)?
A: 0.00217 µM

B10: M62: G1 variant: L1 R28N T30G; L2 A51H L56T; H2 E54K A57N S58E; HC-FW3 L99T A100V (antibody, chains of the INN, looked up, variant L:R28N L:T30G L:A51H L:L56T H:E54K H:A57N H:S58E H:L99T H:A100V, V domains shown)
VH: B1 VH with C57N, S58E
VL: B1 VL with A50G, A51H, I56T
Q: With B10 as the molecule, how does the Kd (α-rat CGRP) read?
A: 0.242 µM

Q: And the Kd (human α-CGRP)?
A: 0.00586 µM

B11: M55: G1 variant: L1 R28N T30A; L2 L56S; H2 E54K A57N S58E E64D; HC-FW3 L99T A100V (antibody, chains of the INN, looked up, variant L:R28N L:T30A L:L56S H:E54K H:A57N H:S58E H:E64D H:L99T H:A100V, V domains shown)
VH: B1 VH with C57N, S58E, E64D
VL: B1 VL with G30A, A50G, I56S
Q: Which results are given for B11?
A: Kd (α-rat CGRP): 0.325 µM; Kd (human α-CGRP): 0.00299 µM

B12: M47: G1 variant: L1 R28N; L2 G50A L56T; H2 E54K A57N S58G; HC-FW3 L99T A100V (antibody, chains of the INN, looked up, variant L:R28N L:G50A L:L56T H:E54K H:A57N H:S58G H:L99T H:A100V, V domains shown)
VH: B1 VH with C57N, S58G
VL: B1 VL with G30T, I56T
Q: Which Kd (α-rat CGRP) does the source give for B12 here?
A: 0.457 µM

Q: And the Kd (human α-CGRP)?
A: 0.00208 µM

B13: M74: G1 variant: L1 R28N T30G; L2 L56S; H2 E54K A57S; HC-FW3 L99T A100V (antibody, chains of the INN, looked up, variant L:R28N L:T30G L:L56S H:E54K H:A57S H:L99T H:A100V, V domains shown)
VH: B1 VH with C57S
VL: B1 VL with A50G, I56S
Q: With B13 as the molecule, how does the Kd (α-rat CGRP) read?
A: 0.335 µM

Q: What about the Kd (human α-CGRP) of the same molecule?
A: 0.00373 µM

B14: M75: G1 variant: L1 R28N T30G; L2 L56S; H2 E54K A57V; HC-FW3 L99T A100V (antibody, chains of the INN, looked up, variant L:R28N L:T30G L:L56S H:E54K H:A57V H:L99T H:A100V, V domains shown)
VH: B1 VH with C57V
VL: B1 VL with A50G, I56S
Q: For B14, which Kd (α-rat CGRP) is on record?
A: 1.04 µM

Q: And the Kd (human α-CGRP)?
A: 0.00725 µM

B15: M78: G1 variant: L1 R28N T30S; L2 G50A L56T; H2 E54K A57N S58T; HC-FW3 L99T A100V (antibody, chains of the INN, looked up, variant L:R28N L:T30S L:G50A L:L56T H:E54K H:A57N H:S58T H:L99T H:A100V, V domains shown)
VH: B1 VH with C57N, S58T
VL: B1 VL with G30S, I56T
Q: Which results are given for B15?
A: Kd (α-rat CGRP): 9.28 µM; Kd (human α-CGRP): 0.00819 µM
